We go through 2 molecules from PMC2847151 (Neurogenetics, 2009).

The test system of this test is Mediator. In words: Binding to Mediator upon transfection into HeLa cells. Conditions: wild-type vs mutant.

Where a chain is given by its changes, count along the chain named. Names may count otherwise.

B1: wildtype: wild-type MED25 protein (ARC92/ACID1); also as GAL4 fusion, full-length clone (1–754) (protein, UniProt Q71SY5 1-747, looked up)
chain: MVPGSEGPARAGSVVADVVFVIEGTANLGPYFEGLRKHYLLPAIEYFNGGPPAETDFGGDYGGTQYSLVVFNTVDCAPESYVQCHAPTSSAYEFVTWLDGIKFMGGGGESCSLIAEGLSTALQLFDDFKKMREQIGQTHRVCLLICNSPPYLLPAVESTTYSGCTTENLVQQIGERGIHFSIVSPRKLPALRLLFEKAAPPALLEPLQPPTDVSQDPRHMVLVRGLVLPVGGGSAPGPLQSKQPVPLPPAAPSGATLSAAPQQPLPPVPPQYQVPGNLSAAQVAAQNAVEAAKNQKAGLGPRFSPITPLQQAAPGVGPPFSQAPAPQLPPGPPGAPKPPPASQPSLVSTVAPGSGLAPTAQPGAPSMAGTVAPGGVSGPSPAQLGAPALGGQQSVSNKLLAWSGVLEWQEKPKPASVDANTKLTRSLPCQVYVNHGENLKTEQWPQKLIMQLIPQQLLTTLGPLFRNSRMVQFHFTNKDLESLKGLYRIMGNGFAGCVHFPHTAPCEVRVLMLLYSSKKKIFMGLIPYDQSGFVNGIRQVITNHKQVQQQKLEQQQRGMGGQQAPPGLGPILEDQARPSQNLLQLRPPQPQPQGTVGASGATGQPQPQGTAQPPPGAPQGPPGAASGPPPPGPILRPQNPGANPQLRSLLLNPPPPQTGVPPPQASLHHLQPPGAPALLPPPHQGLGQPQLGPPLLHPPPAQSWPAQLPPRAPLPGQMLLSGGPRGPVPQPGLQPSVMEDDILMDLI
modifications: full-length also GAL4 fusion
Regarding B1, the “binding to Mediator” value is “bound indistinguishably to Mediator”.

B2: mutant MED25: MED25 protein carrying the p.A335V mutation; also as GAL4 fusion, full-length clone (1–754) (protein, UniProt Q71SY5 1-747, looked up, variant A335V)
chain: B1 chain with A335V
modifications: full-length also GAL4 fusion
Consider B2, for which the “binding to Mediator” value is “bound indistinguishably to Mediator”.
